Experimental data from US20130273046A1 (UNIVERSITE DE LAUSANNE, published 2013).

What was measured:
[1] = biological target: T1, human EDAR domains I and II fused to Fc of human IgG1 (human, UniProt Q9UNE0 27-114); assay: capture ELISA on EDAR-Fc truncation proteins
T1 construct: Tested as supernatant of transfected 293T cells; also called CRD1 and CRD2 EDAR-Fc truncation protein; fragment made up of domains I and II; not shown: Fc region of human IgG1
T1 sequence: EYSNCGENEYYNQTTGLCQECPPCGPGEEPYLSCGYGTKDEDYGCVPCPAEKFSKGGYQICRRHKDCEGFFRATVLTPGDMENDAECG
Description: (§1) Epitope mapping of anti-EDAR monoclonal antibodies on recombinant human EDAR by ELISA. (A) Schematic linear representation of human EDAR showing the position of cystein residues (thin horizontal lines), of the putative N-linked glycosylation site (thick horizontal line, N), of the six structural modules (rectangles with rounded corners) composing the three cystein-rich domains (CRD1, CRD2, CRD3), of the transmembrane domain (rectangle, TMD), of the signal peptide (Leader), of the stalk and of the intracellular domain (ID). Amino acid numbers at the junctions of interest are indicated. The arrow indicates the predicted cleavage site of the signal peptide. The scheme is drawn to scale, except for the intracellular domain. (B) Wells of ELISA plates were coated with goat anti-human IgG antibody, blocked, and further incubated with human EDAR-Fc, mouse EDAR-Fc or the indicated human EDAR-Fc truncation proteins in cell supernatants of transfected cells. One well was also left without cell supernatant (Ctrl). The efficient capture of the various EDAR-Fc proteins was controlled using horseradish peroxydase-coupled donkey anti-human IgG antibody. Binding of mAbEDARs were monitored with horseradish peroxydase-coupled anti-mouse IgG antibody.
(§2) EDAR is a transmembrane protein whose extracellular part is composed of three membrane distal cystein-rich domains (CRDs) and of a proximal membrane stalk domain (FIG. 9A). Constructs coding for the entire EDAR protein, domains I and II, domains II and III, domain III and the stalk domain, domains I, II and III alone and the stalk domain alone were assembled with the Fc region of human IgG1, inserted into a mammalian expression vector and transiently transfected in 293T cells. […] The other fragments were not recognized, in particular the fragments made up of either domain I or II alone. mAbEDAR5, 6, 12 and 13 specifically recognized domain I, alone or together with domain II. mAbEDAR9, 14 and 15 only recognized Fc constructs containing the entire EDAR extracellular domain.

human Fas-Fc = biological target: T2, human Fas-Fc (human, UniProt P25445 26-170, limits assumed); assay: Western blot, 20 ng hFas-Fc (FIG. 7B)
T2 construct: Negative control protein; also called hFas-Fc; not shown: Fc portion
T2 sequence (looked up): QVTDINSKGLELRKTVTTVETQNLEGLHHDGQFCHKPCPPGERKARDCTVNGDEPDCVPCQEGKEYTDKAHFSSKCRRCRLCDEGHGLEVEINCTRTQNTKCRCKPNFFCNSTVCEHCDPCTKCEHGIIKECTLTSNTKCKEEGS
Description: (§3) The weaker signal obtained with mouse EDAR might be explained by the lower amount of mouse EDAR-Fc loaded on the gel. Binding specificity is established by showing that none of the mAbEDARs does bind to Fas-Fc and Flag-human APRIL (while Flag-human APRIL is recognized by an anti-APRIL mAb). […] The band recognized by mAbEDAR5 in the BSA lane is probably due to a cross-contamination of EDAR-Fc in the neighboring lane.

human EDAR-Fc = biological target: T3, human EDAR-Fc (human); assay: Western blot, non-reducing SDS-PAGE (FIG. 7A)
T3 construct: also called hEDAR-Fc; human EDAR (1-183)-Fc
Description: (§4) FIG. 7. Use of anti-EDAR mAb in Western blotting.
as §3

mouse EDAR-Fc = biological target: T4, mouse EDAR-Fc (mouse); assay: ELISA on mouse EDAR-Fc (FIG. 6, 9)
T4 construct: also called mouse EDAR (1-183)-Fc; soluble mouse EDAR-Fc fusion protein
T4 sequence (chain, as listed by the source limits assumed): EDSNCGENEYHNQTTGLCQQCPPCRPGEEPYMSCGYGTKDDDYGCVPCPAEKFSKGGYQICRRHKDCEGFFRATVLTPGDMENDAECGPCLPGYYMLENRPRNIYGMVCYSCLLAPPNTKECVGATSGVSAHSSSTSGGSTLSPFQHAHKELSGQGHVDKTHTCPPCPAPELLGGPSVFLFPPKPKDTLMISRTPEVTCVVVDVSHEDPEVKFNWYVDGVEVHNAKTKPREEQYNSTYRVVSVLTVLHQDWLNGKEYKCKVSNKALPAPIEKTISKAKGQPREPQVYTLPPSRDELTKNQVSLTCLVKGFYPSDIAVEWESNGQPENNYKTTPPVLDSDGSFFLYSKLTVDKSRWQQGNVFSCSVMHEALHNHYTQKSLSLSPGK
Experimental: FIG. 6. Specific binding of the anti-EDAR mAb to both mouse and human EDAR. Graded concentrations of mAbEDAR1-4 or of a control mAb (Aprily 5) were added to wells of a 96-well ELISA plate coated with 100 μl of 1 μg/ml of human EDAR-Fc, mouse EDAR-Fc, human Fas-Fc or Flag-human APRIL. […] The absorbance was measured at 490 nm.
In order to obtain antibodies recognizing both human and mouse EDAR, a feature which would considerably facilitate pre-clinical development of drug candidates, EDAR-deficient mice were immunized with human EDAR. It was then assessed whether monoclonal antibodies generated from these mice indeed recognized EDAR from these two animal species. The wells of microtiter plates were coated with soluble human and mouse EDAR-Fc fusion protein and a negative control protein (human Fas-Fc), blocked and probed with serial dilutions of anti-EDAR monoclonal antibody (mAb) mAbEDAR1, 2, 3 and 4 and a negative control mAb (Aprily 5) (FIG. 6), or with a single dose of mAbEDAR1 to 15 (FIG. 9).

Flag-human APRIL = biological target: T5, Flag-human APRIL (human, UniProt O75888 110-250, limits assumed); assay: Western blot (FIG. 7A)
T5 construct: Control antigen; not shown: Flag tag
T5 sequence (looked up): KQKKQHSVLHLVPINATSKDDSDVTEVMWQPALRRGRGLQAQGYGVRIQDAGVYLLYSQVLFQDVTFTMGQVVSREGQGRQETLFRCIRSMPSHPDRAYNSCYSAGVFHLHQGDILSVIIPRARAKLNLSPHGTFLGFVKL
Description: as §4, §3

[2] = biological target: T6, human EDAR domain II alone fused to Fc of human IgG1 (human, UniProt Q9R187 73-114 (mouse entry), limits assumed); assay: capture ELISA on EDAR-Fc truncation proteins (FIG. 9)
T6 construct: also called CRD2 EDAR-Fc truncation protein; not shown: Fc region of human IgG1
T6 chain: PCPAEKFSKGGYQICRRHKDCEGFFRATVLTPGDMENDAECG
Description: as §1, §2

[3] = biological target: T7, human EDAR domains II and III fused to Fc of human IgG1 (human, UniProt Q9R187 73-150 (mouse entry), limits assumed); assay: as above
T7 construct: also called CRD2 and CRD3 EDAR-Fc truncation protein; not shown: Fc region of human IgG1
T7 sequence: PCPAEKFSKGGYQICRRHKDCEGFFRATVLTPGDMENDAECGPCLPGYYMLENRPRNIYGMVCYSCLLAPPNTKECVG
Description: as §1, §2

[4] = biological target: T8, human EDAR stalk domain alone fused to Fc of human IgG1 (human, limits assumed); assay: as above
T8 construct: also called stalk EDAR-Fc truncation protein; not shown: Fc region of human IgG1
T8 chain: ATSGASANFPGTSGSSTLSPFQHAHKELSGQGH
Description: as §1, §2

[5] = biological target: T9, human EDAR domain III alone fused to Fc of human IgG1 (human, limits assumed); assay: as above
T9 construct: also called CRD3 EDAR-Fc truncation protein; not shown: Fc region of human IgG1
T9 chain: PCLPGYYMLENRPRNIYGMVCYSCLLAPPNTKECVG
Description: as §1, §2

[6] = biological target: T10, human EDAR domain I alone fused to Fc of human IgG1 (human, UniProt Q9UNE0 27-72); assay: as above
T10 construct: also called CRD1 EDAR-Fc truncation protein; not shown: Fc region of human IgG1
T10 chain: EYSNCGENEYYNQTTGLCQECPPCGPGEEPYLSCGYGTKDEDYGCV
Description: as §1, §2

[7] = biological target: T11, human EDAR domain III and the stalk domain fused to Fc of human IgG1 (human, UniProt Q9UNE0 115-183, limits assumed); assay: as above
T11 construct: also called CRD3 and stalk EDAR-Fc truncation protein; not shown: Fc region of human IgG1
T11 sequence: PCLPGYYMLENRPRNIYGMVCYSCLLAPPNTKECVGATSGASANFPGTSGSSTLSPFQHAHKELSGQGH
Description: as §1, §2

Measured: binding result

B1: mAbEDAR2 (antibody, IgG1, V domains shown)
VH: QVQLQQPGAELVKPGASVKLSCKASGYTFTSYWMQWVKQRPGQGIEWIGEIDPSDSYTYYNQKFKGKATLTIDKSSSTAYMQLSSLTSEDSAVYYCSRKNYYRGMDYWGQGTSVTVSS
VL: DVLMTQTPLSLPVSLGDQASISCRSSQNIVQSNGNTYLEWYLQKPGQSPKLLIYKVSNRFSGVPDRFSGSGSGTDFTLKISRVEADDLGVYYCFQVSHVPYTFGGGTKLEIKR
notes: Light chain identical to that of mAbEDAR4; also called anti-EDAR mAb mAbEDAR2
no binding: human Fas-Fc | Flag-human APRIL | [2] | [3] | [4] | [5] | [6] | [7]
binds: [1] | human EDAR-Fc | mouse EDAR-Fc
